Reference: patent US7094554 (University of Texas, dated 2006)

Legend:
[1] = biological target: T1, Cry1Ab toxin (trypsinized 60 kD toxin) (Bacillus thuringiensis, UniProt P0A370 29-620, limits assumed, radioiodinated (125I, chloramine T) where used as labelled ligand); test: competition ligand blot, 125I-Cry1Ab with unlabeled Cry1Ab on the 32 kD protein, gamma counting
T1 construct: domain: soluble trypsinized 60 kD toxin; also called Cry lAb

[2] = biological target: T1, Cry1Ab toxin (trypsinized 60 kD toxin); test: blot of E. coli lysate incubated with Cry1Ab toxin, then anti-toxin antiserum

Binder | Kd [1] | binding result [2]
PBW-866 expressed protein (BT-R2 aa 1210-1496), 32 kD (receptor, also called 32 kD protein) EEGKEFEVTIRATDGGTEPRSYSTDSTITVLFVPTLGDPIFQDNTYSVAFFEKEVGLTERFSLPHAEDPKNKLCTDDCHDIYYRIFGGVDYEPFDLDPVTNVIFLKSELDRETTATHVVQVAASNSPTGGGIPLPGSLLTVTVTVREADPRPVFEQRLYTAGISTSDNINRELLTVRATHSENAQLTYTIEDGSMAVDSTLEAVKDSAFHLNAQTGVLILRIQPTASMQGMFEFNVIATDPDEKTDTAEVKVYLISSQNRVSFIFLNDVETVESNRDFIAETFSVGF | ~17 nM | 
PBW-421 expressed protein (BT-R2 aa 1367-1496), 21 kD (receptor, also called 21 kD protein) LYTAGISTSDNINRELLTVRATHSENAQLTYTIEDGSMAVDSTLEAVKDSAFHLNAQTGVLILRIQPTASMQGMFEFNVIATDPDEKTDTAEVKVYLISSQNRVSFIFLNDVETVESNRDFIAETFSVGF |  | no binding
